# In patent publication US12344663B2, “Anti-C3 antibodies and antigen-binding fragments thereof and their uses for treating eye or ocular diseases” (CDR-Life AG, priority 2021, dated 2025):
# B1: Clone I: humanized anti-C3 scFv, VH SEQ ID NO: 20, VL SEQ ID NO: 21; scFv SEQ ID NO: 26 or 27 (antibody, V domains shown)
# VH: QVQLVESGGGSVQPGRSLRLSCAASGFTFSNYAMNWVRQAPGKGLEWVAVISYDGSNKYYADSVKGRFTISRDNSKNTLYLQMNSLRAEDTASYYCARAVGYHHARLDPWGCGTSVTVSS
# VL: QLVLTQSPSASASLGASVKLTCTLSSAHKTYTIDWYQQQPEKCPRYLMQLKSDGSYTKGSGIPDRFSGSSSGAERYLTISSLQSEDEADYYCGTEGVGGYVFGGGTKLTVLG
# modifications: VH; VL
# Tested on: pre-existing ADA
# Assay: Bridging ELISA screen for pre-existing ADA in sera of healthy human donors
# Settings: 10% serum of healthy human donors
# From the text: The inventors screen sera of healthy human donors for pre-existing ADA against Clone I using a bridging ELISA. Pre-existing ADAs present in serum from healthy human donors are bound by immobilized anti-C3 scFv. In a next step, ADAs are bound by the same anti-C3 scFv labeled with biotin and are detected by HRP-conjugated Streptavidin.
# The scFv is biotin-labeled using the “Biotin Conjugation Kit (Fast, Type A)-Lightning-Link”-Kit (Expedeon/Abcam) following the suppliers' instructions. The unlabeled scFv is diluted to 0.5 μg/ml in PBS, 50 μl per well transferred to a 96 well plate and incubated overnight at 4° C. On the next day, the 96 well plate is washed with wash buffer (3×320 μl, 0.05% Tween 20 in PBS pH 7.4) and non-specific binding sites are blocked with 300 μl/well blocking buffer (SuperBlock Blocking Buffer; ThermoFisher scientific) for 30 min at room temperature. The wells are then washed with wash buffer (3×320 μl/well)
# Human serum from healthy volunteers is diluted to 10% in PBS, 50 μl/well are added to the 96 well plate and the plate incubated for 1 hr at room temperature. […]
# The plate is washed (3×320 μl/well wash buffer), 50 μl/well TMB substrate (Invitrogen) is added and incubated for 5 min at room temperature. […] The absorption is measured at 450 nm. […]
molecule,measurement,value
B1,Serum samples with pre-existing ADA,9 out of 50
